In assay [1] the target is T1, canine IL-13 (canine, UniProt Q9N0W9 19-131, limits assumed, biotin-labeled in the Octet assay (site not stated)).
T1 sequence (looked up): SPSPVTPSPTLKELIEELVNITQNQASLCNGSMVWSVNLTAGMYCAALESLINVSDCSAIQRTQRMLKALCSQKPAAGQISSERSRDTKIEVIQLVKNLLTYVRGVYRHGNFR
The experiment in a line: cell-based or functional assay.

Assay [2] deals with T1, canine IL-13. The experiment in a line: cell-based or functional assay. This is another data set of the same source.
Assay [3] has as its target T1, canine IL-13. Briefly: BLI (Octet); summary table, rounded from Table 4. (In BLI a coated tip is dipped into the sample, and binding shifts an interference pattern.)
The target in assay [4] is T1, canine IL-13. Briefly: BLI (Octet HTX), biotin-cIL-13 on SA biosensors, fusion protein in solution, 1:1 fit.
In assay [5] the target is T1, canine IL-13. The experiment in a line: cell-based or functional assay. The source holds these as a separate data set.
The target in assay [6] is T2, canine IL-4 (canine, UniProt O77762 25-132, biotin-labeled in the Octet assay (site not stated)).
T2 sequence (looked up): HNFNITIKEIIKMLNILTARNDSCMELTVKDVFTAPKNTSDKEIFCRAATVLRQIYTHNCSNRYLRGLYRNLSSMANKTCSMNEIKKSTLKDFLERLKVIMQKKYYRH
Briefly: cell-based or functional assay.

Assay [7] has as its target T2, canine IL-4. The experiment in a line: BLI (Octet HTX), biotin-cIL-4 on SA biosensors; ND = Binding Not Detected. Here is the method: The binding constants for the cFc fusion proteins provided in Tables 3 and 4 below, were determined using OCTET® HTX. All kinetics measurements were performed by OCTET® HTX using SA® biosensors and DATA ACQUISITION® 12.0 software. 10 μg/mL of biotin-labeled antigen, either canine IL-4 (cIL-4) or canine IL-13 (cIL-13) were loaded onto the SAR biosensors for 120 seconds. Next, the biosensors were placed into 1×pH 7.0 TBS/Casein buffer for 60 seconds for the blocking phase. For the association phase, antigen loaded biosensors were placed into 2-fold serial dilutions from 1 μM down to 15.6 nM of the wild-type, the bispecific, or the FcRn-mutant receptor Fc-fusions that recognized the cIL-4 or cIL-13 antigen in 1×pH 7.0 TBS/Casein buffer for 30 seconds. The last well was buffer alone and that sensor was used for reference sensor subtraction. Finally, the biosensors were placed into 1×pH 7.0 TBS/Casein buffer for 120 seconds for the dissociation phase. The results were then analyzed using Data Analysis 12.0 software and the curves were fitted using a 1:1 binding model.

The target of assay [8] is T2, canine IL-4. Briefly: cell-based or functional assay. This is another data set of the same source.

B1: cIL-4Rα-13Rα2 ZW1-cFc (Fc fusion)
chain 1: VKVLHEPSCFSDYISTSVCQWKMDHPTNCSAELRLSYQLDFMGSENHTCVPENREDSVCVCSMPIDDAVEADVYQLDLWAGQQLLWSGSFQPSKHVKPRTPGNLTVHPNISHTWLLMWTNPYPTENHLHSELTYMVNVSNDNDPEDFKVYNVTYMGPTLRLAASTLKSGASYSARVRAWAQTYNSTWSDWSPSTTWLNYYEPWEQHLPPKRENGRVPRPPDCPKCPAPEMLGGPSVFIFPPKPKDTLLIARTPEVTCVVVDLDPEDPEVQISWFVDGKQMQTAKTQPREEQFNGTYRVVSVLPIGHQDWLKGKQFTCKVNNKALPSPIERTISKARGQAHQPSVYVYPPSREELSKNTVSLTCLIKDFFPPDIDVEWQSNGQQEPESKYRTTPPQLDEDGSYALVSKLSVDKSRWQRGDTFICAVMHEALHNHYTQESLSHSPGK
chain 2: SMLSNAEIKVNPPQDFEIVDPGYLGYLSLQWQPPLFPDNFKECTIEYELKYRNIDSENWKTIITKNLHYKDGFDLNKGIEAKINTLLPAQCTNGSEVRSSWAETTYWTSPQGNRETKIQDMDCVYYNWQYLVCSWKPGMGVHFDTNYQLFYWYEGLDHSAECTDYIKVNGKNMGCRFPYLESSDYKDFYICVNGSSESQPIRPSYFIFQLQNIVKPMPPDYLSLTVKNSEEINLKWNMPKGPIPAKCFIYEIEFTEDGTTWVTTTVENEIQITRTSNESQKLCFLVRSKVNIYCSDDGIWSEWSDEQCWKGDIWKETPKRENGRVPRPPDCPKCPAPEMLGGPSVFIFPPKPKDTLLIARTPEVTCVVVDLDPEDPEVQISWFVDGKQMQTAKTQPREEQFNGTYRVVSVLPIGHQDWLKGKQFTCKVNNKALPSPIERTISKARGQAHQPSVYVLPPSREELSKNTVSLLCLIKDFFPPDIDVEWQSNGQQEPESKYLTWPPQLDEDGSYFLYSKLSVDKSRWQRGDTFICAVMHEALHNHYTQESLSHSPGK
notes: also called cIL4Rα-IL13Rα2_ZW1-cFc; cIL-4Rα-IL13Rα2_ZW1-cFc
In general, Kd refers to the equilibrium constant for the complex coming apart. The low end stands for tighter binding, the high end for weaker binding. What is called koff is a measure of how fast the partners let go of each other. Lower therefore signals a long-lived complex. The term kon denotes the second-order rate constant of association. As to B1, in the assay with canine IL-13 [1], the “IL-13 IC50 (inhibition of cIL-13 mediated STAT6 phosphorylation in DH82 cells)” value turned out to be 29.4 nM. Further, in the assay with canine IL-13 [2], the “fold change of the concentration that inhibits 50% of the cIL-13 mediated STAT6 phosphorylation in DH82 cells, against cIL-13Rα2-cFc” value is approximately 200 fold higher. This molecule gave a Kd in the assay with canine IL-13 [3] of 4 nM. In addition, in the assay with canine IL-13 [4], the Kd came to 4.15 nM, the koff amounted to 0.000135 s⁻¹ and the kon worked out at 32600 M⁻¹ s⁻¹. Moreover, in the assay with canine IL-13 [5], the “IL-13 (IC50), summary table” value was 30 nM. Further, in the assay with canine IL-4 [6], the “IL-4 (IC50), summary table” value is 200 nM. Besides, the binding result in the assay with canine IL-4 [7] is “no binding (tested: 1 µM (highest concentration tested))”. For the same molecule, in the assay with canine IL-4 [8], the “IL-4 IC50 (inhibition of cIL-4 mediated STAT6 phosphorylation in DH82 cells)” value was determined as 184 nM.

(Values after patent publication US20250325630A1, “HOMODIMER FUSION PROTEINS FOR TREATING ATOPIC DERMATITIS” (Intervet Inc., priority 2021, published 2025).)
